Assay results taken from patent publication US8129345B2, “MUC1-IκB kinase complexes and their activities” (Dana-Farber Cancer Institute, Inc., priority 2006, dated 2012).
Entries after “also recorded” stand apart in the source; their conditions may differ.

T1: IKKβ (Homo sapiens, UniProt O14920)
T1 sequence (O14920 1-756): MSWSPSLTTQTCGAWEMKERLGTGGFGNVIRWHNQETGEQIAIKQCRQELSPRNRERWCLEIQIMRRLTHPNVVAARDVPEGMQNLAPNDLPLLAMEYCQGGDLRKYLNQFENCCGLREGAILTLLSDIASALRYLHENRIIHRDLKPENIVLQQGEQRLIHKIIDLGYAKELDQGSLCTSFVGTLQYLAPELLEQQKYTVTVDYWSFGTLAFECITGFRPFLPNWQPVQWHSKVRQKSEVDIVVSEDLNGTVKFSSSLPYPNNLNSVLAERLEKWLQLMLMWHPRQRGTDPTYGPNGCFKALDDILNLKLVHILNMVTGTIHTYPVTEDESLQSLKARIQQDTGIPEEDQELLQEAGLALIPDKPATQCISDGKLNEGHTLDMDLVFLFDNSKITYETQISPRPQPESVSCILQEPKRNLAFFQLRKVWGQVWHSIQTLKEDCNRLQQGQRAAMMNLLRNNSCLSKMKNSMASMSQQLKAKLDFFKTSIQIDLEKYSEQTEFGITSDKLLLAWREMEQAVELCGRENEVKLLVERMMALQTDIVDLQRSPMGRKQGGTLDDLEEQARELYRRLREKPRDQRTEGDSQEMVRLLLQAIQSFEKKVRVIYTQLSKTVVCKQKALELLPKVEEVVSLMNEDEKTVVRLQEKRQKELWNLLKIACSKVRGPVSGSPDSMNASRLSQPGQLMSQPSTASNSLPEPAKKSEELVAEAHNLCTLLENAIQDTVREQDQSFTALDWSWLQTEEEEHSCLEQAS

T2: MUC1-CD (Homo sapiens, UniProt P15941)
T2 construct: the MUC1-cytoplasmic domain (MUC1-CD) [amino acids 1-72; GST (N, cleaved yes); made in house
T2 sequence (P15941 1184-1255): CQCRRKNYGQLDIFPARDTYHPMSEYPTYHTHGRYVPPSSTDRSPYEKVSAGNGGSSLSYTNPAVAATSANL


How the values were obtained:
[1] = molecular target: T1, IKKβ; test: In vitro GST pull-down binding to IKKβ; conditions: GST pull-down with purified proteins, immunoblot
Procedure: FIG. 4B is a pair of photographs of immunoblots. Recombinantly expressed, purified GST- and GST-IKKβ proteins bound to glutathione-agarose beads were incubated with purified MUC1-CD protein. The precipitates were immunoblotted (IB) with anti-MUC1-C antibodies. Input of the GST and GST-IKKβ proteins was assessed by Coomassie blue staining. The molecular weights of proteins (as indicated on the left of the photographs) are expressed as kilodaltons (kDa).
FIG. 4C (top panel) is a schematic diagram of the amino acid sequence of (i) the MUC1-cytoplasmic domain (MUC1-CD) [amino acids 1-72; SEQ ID NO:2]; (ii) the MUC1-CD fragment [amino acids 1-45; SEQ ID NO:3]; and (iii) the MUC-CD fragment [amino acids 46-72; SEQ ID NO:4]. FIG. 4C (bottom panel) is a photograph of an immunoblot and a photograph of a Coomassie blue-stained electrophoretic gel. GST- and the indicated GST-MUC1-CD fusion proteins bound to glutathione beads were incubated with purified IKKβ. The precipitates were immunoblotted with anti-IKKβ. Input of the GST and GST-MUC1-CD fusion proteins was assessed by Coomassie blue staining. The molecular weights of proteins (as indicated on the left of the photographs) are expressed as kilodaltons (kDa).
(§1) FIG. 11A is a pair of photographs of an immunoblot and Coomassie-blue stained gel. GST and the indicated GST-MUC1-CD fusion proteins (MUC1-CD and MUC1-CD(mSRM)) bound to glutathione beads were incubated with IKKβ. The precipitates were immunoblotted (IB) with an anti-IKKβ antibody. Commassie blue staining of the gel was performed to confirm that equal amounts of GST- and GST-MUC1-CD proteins were used in the experiment. The molecular weights of proteins (as indicated on the left of the photographs) are expressed as kilodaltons (kDa).
(§2) In vitro binding assays. Purified GST-MUC1-CD (glutathione s-transferase fused to the MUC1-CD polypeptide) was cleaved with thrombin to remove the GST moiety. […] Adsorbates to glutathione-conjugated beads were analyzed by immunoblotting.

[2] = molecular target: IKKγ (Homo sapiens, UniProt Q9Y6K9); test: In vitro GST pull-down binding to IKKγ; conditions: GST pull-down with purified proteins, immunoblot
Procedure: FIG. 5B is a pair of photographs of immunoblots showing an interaction between MUC1-CD and IKKγ. GST- and GST-IKKγ bound to glutathione beads were incubated with purified MUC1-CD. The precipitates were immunoblotted (IB) with anti-MUC1-C antibodies. Commassie blue staining of the gel was performed to confirm that equal amounts of GST- and GST-IKKγ were used in the experiment. The molecular weights of proteins (as indicated on the left of the photographs) are expressed as kilodaltons (kDa).
FIG. 5C is a pair of photographs of immunoblots. GST- and the indicated GST-MUC1-CD fusion proteins or fragments bound to glutathione beads were incubated with purified IKKγ. The precipitates were immunoblotted (IB) with anti-IKKγ antibody. Commassie blue staining of the gel was performed to confirm that equal amounts of GST- and GST-MUC1 proteins were used in the experiment. The molecular weights of proteins (as indicated on the left of the photographs) are expressed as kilodaltons (kDa).
FIG. 5D is a pair of photographs of immunoblots. GST and the indicated GST-IKKγ fusion proteins bound to glutathione beads were incubated with MUC1-CD. The precipitates were immunoblotted (IB) with anti-MUC1-C antibody. Commassie blue staining of the gel was performed to confirm that equal amounts of GST- and GST-IKKγ proteins were used in the experiment. The molecular weights of proteins (as indicated on the left of the photographs) are expressed as kilodaltons (kDa).
as §1, with “11B” for “11A”, “Coomassie blue” for “Coomassie-blue”, “IKKγ.” for “IKKβ.”, “anti-IKKγ” for “anti-IKKβ”
(§3) In vitro binding assays. Purified GST-MUC1-CD (glutathione s-transferase fused to the MUC1-CD polypeptide) was cleaved with thrombin to remove the GST moiety. GST, GST-IKKβ (DiDonato et al. (1997) Nature 388:548-554), GST-IKKβ (1-458), GST-IKKβ (458-756), GST-IKKγ (Prajapati et al. (2002) J. Biol. Chem. 277:24331-24339), GST-IKKγ (1-196) or GST-IKKγ (197-419) were then incubated with the MUC1-CD for 1 hour at 25° C. In other experiments, GST, GST-MUC1-CD, GST-MUC1-CD(1-45) or GST-MUC1-CD(46-72) were incubated with purified IKKβ or IKKγ. Adsorbates to glutathione-conjugated beads were analyzed by immunoblotting.

[3] = molecular target: IKKβ-IKKγ complexes (Homo sapiens, UniProt O14920+Q9Y6K9); test: In vitro association of IKKβ with GST-IKKγ in absence and presence of MUC1-CD proteins; assay type: binding; conditions: purified IKKβ and GST-IKKγ, with or without added MUC1 protein
Procedure: FIG. 7C is a series of photographs of immunoblots. GST- or GST-IKKγ bound to glutathione beads was incubated with IKKβ in the absence and presence of MUC1-CD protein. The precipitates were immunoblotted (IB) with anti-IKKβ (upper panel). Input amounts of the various proteins were assessed by immunoblotting with the indicated antibodies (lower 3 panels). The molecular weights of proteins (as indicated on the left of the photographs) are expressed as kilodaltons (kDa).
(§4) FIG. 12 is a series of photographs of immunoblots. GST, and GST-IKKγ fusion proteins bound to glutathione beads were incubated with MUC1-CD, MUC1-CD(mSRM), or IKKβ proteins as indicated. The GST-pull down precipitates were immunoblotted (IB) with antibodies specific for IKKγ (top panel), IKKβ (middle panel), or MUC1 (bottom panel) as indicated. The molecular weights of proteins (as indicated on the left of the photographs) are expressed as kilodaltons (kDa).
as §2

[4] = molecular target: IKKβ (Homo sapiens, UniProt O14920); test: In vitro incubation of IKKβ and IKKγ with ATP, phospho-IKKβ-Ser-181 immunoblot; assay type: biochemical; conditions: MUC1 protein added to the reaction
Procedure: as §4, with “13” for “12”, “for (from top to bottom) phosphor-IKKβ-Ser-181 (first panel),” for “for”, “(second” for “(top”, “(third” for “(middle”, “(fourth” for “(bottom”
Target sequence in this assay (Q9Y6K9 whole entry partner, one chain of several): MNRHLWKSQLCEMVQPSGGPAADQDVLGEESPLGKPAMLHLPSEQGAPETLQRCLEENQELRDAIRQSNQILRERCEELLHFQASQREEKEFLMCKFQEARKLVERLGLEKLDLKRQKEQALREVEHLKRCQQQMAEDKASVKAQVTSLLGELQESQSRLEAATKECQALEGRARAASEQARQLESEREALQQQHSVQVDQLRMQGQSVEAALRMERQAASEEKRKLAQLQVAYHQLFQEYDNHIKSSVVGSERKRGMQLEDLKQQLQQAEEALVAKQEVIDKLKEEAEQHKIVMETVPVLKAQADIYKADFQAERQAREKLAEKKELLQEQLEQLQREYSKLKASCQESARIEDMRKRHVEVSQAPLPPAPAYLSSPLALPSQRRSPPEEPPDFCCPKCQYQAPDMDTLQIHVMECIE

[5] = molecular target: T2, MUC1-CD; test: In vitro GST pull-down of GST-IKKβ fragments with MUC1-CD; assay type: binding; conditions: GST-IKKβ (1-458) and GST-IKKβ (458-756) incubated with MUC1-CD
Procedure: FIG. 4D is a pair of photographs of immunoblots. GST and the indicated GST-IKKβ fusion proteins bound to glutathione beads were incubated with MUC1-CD. The precipitates were immunoblotted with anti-MUC1-C antibody. The molecular weights of proteins (as indicated on the left of the photographs) are expressed as kilodaltons (kDa).
as §3

Chain of IKKγ (Q9Y6K9 whole entry): as the sequence (Q9Y6K9 whole entry partner, one chain of several) above
Chain of IKKβ-IKKγ complexes (Q9Y6K9 whole entry, one chain of several): as the sequence (Q9Y6K9 whole entry partner, one chain of several) above

| Molecule | binding to IKKγ [2] | interaction between IKKβ and IKKγ [3] | extent of IKKβ phosphorylation on Ser-181 [4] | binding to IKKβ [1] | binding of MUC1 to IKKβ fragments [5] |
| --- | --- | --- | --- | --- | --- |
| MUC1-CD(mSRM): MUC1-CD with serine-rich motif SAGNGGSSLS mutated to AAGNGGAAAA (SEQ ID NO:14) (Mutation of the Serine rich motif from human MUC1 CD) | attenuated binding to IKKγ | substantially less effective | attenuated | no effect |  |
| IKKβ (1-458): fragment of amino acids 1-458 (SEQ ID NO:7) of human IKKβ (protein, listed as Homo sapiens, not fully specified; X: residue not identified in the source) MSWSPSLTTQTCGAWEMKERLGTGGFGNVIRWHNQETGEQIAIKQCRQELSPRNRERWCLEIQIMRRLTHPNVVAARDVPEGMXNLAPNDLPLLAMEYCQGGDLRKYLNQFENCCGLREGAILTLLSDIASALRYLHENRIIHRDLKPENIVLQQGEQRLIHKIIDLGYAKELDQGSLCTSFVGTLQYLAPELLEQQKYTVTVDYWSFGTLAFECITGFRPFLPNWQPVQWHSKVRQKSEVDIVVSEDLNGTVKFSSSLPYPNNLNSVLAERLEKWLQLMLMWHPRQRGTDPTYGPNGCFKALDDILNLKLVHILNMVTGTIHTYPVTEDESLQSLKARIQQDTGIPEEDQELLQEAGLALIPDKPATQCISDGKLNEGHTLDMDLVFLFDNSKITYETQISPRPQPESVSCILQEPKRNLAFFQLRKVWGQVWHSIQTLKEDCNRLQQGQRAAMMNL |  |  |  |  | MUC1 binds directly with the IKKβ N-terminal region |

Second part, led by results:

| binding to IKKγ [2] | interaction between IKKβ and IKKγ [3] | extent of IKKβ phosphorylation on Ser-181 [4] | Molecule | binding to IKKβ [1] | binding of MUC1 to IKKβ fragments [5] |
| --- | --- | --- | --- | --- | --- |
| not |  |  | MUC1-CD(1-45): fragment consisting of amino acids 1-45 (SEQ ID NO:3) of the human MUC1 CD (CQCRRKNYGQLDIFPARDTYHPMSEYPTYHTHGRYVPPSSTDRSP; listed as Homo sapiens) | confers the ability to bind to IKKβ; also recorded: binds to IKKβ |  |
| binds to IKKγ |  |  | MUC1-CD(46-72): fragment consisting of amino acids 46-72 (SEQ ID NO:4) of the human MUC1 CD (YEKVSAGNGGSSLSYTNPAVAATSANL; listed as Homo sapiens) |  |  |
